According to patent US20180355064A1 (GLENMARK PHARMACEUTICALS S A, published 2018):

Target: T1, human CD3 epsilon on HPB-ALL cells (human, UniProt P07766 23-207)
T1 construct: whole, on cells; also called human CD3 epsilon positive T cell tumour line
Assay: FACS, median fluorescence intensity on HPB-ALL cells
Protocol: HPB-ALL cells (DSMZ, Braunschweig, Germany, Cat. No: ACC483) were used as CD3 positive cell line for FACS staining. […] After washing, cells were incubated with a 1/200 dilution of anti-Human Fc-PE (EBioscience, Vienna, Austria) for 45 min on ice. Cells were then washed again and resuspended in 200 ul FACS buffer.

binding result: no binding
B1: humanized OKT3 prototype antibody VH/VL (antibody, human IgG1, kappa, V domains shown)
VH: EVQLVESGGGLVQPGGSLRLSCAASGYTFTRYTIHWVRQAPGKGLEWVAYINPSRGYTRYADSVKGRFTISADTSKNTAYLQMNSLRAEDTAVYYCARYYDDHYCLDYWGQGTLVTVSS
VL: DIQMTQSPSSLSASVGDRVTITCRASSSVSYVAWYQQKPGKAPKLLIYDTSKLYSGVPSRFSGSRSGTDFTLTISSLQPEDFATYYCQQWSSNPPTFGQGTKVEIKR
